# ± gives the standard deviation of the averaged measurements.
# Test: total protein half-life in vivo (active degradation + dilution); higher = more stable protein
# [1] = E. coli NCM3722 delta-clpP delta-lon delta-hslV, growth: N-lim chemostat, doubling time 6 h
# [2] = E. coli NCM3722 delta-clpP, growth: N-lim chemostat, doubling time 6 h
# [3] = E. coli NCM3722 delta-hslV, growth: N-lim chemostat, doubling time 6 h
# [4] = E. coli NCM3722 delta-lon, growth: N-lim chemostat, doubling time 6 h
# [5] = E. coli NCM3722 delta-smpB, growth: N-lim chemostat, doubling time 6 h
# [6] = wild type E. coli NCM3722, growth: C-lim chemostat, doubling time 3 h
# [7] = wild type E. coli NCM3722, growth: C-lim chemostat, doubling time 6 h
# [8] = wild type E. coli NCM3722, growth: C-lim chemostat, doubling time 12 h
# [9] = wild type E. coli NCM3722, growth: N-lim chemostat, doubling time 6 h
# [10] = wild type E. coli NCM3722, growth: N-lim chemostat, doubling time 12 h
# [11] = wild type E. coli NCM3722, growth: P-lim chemostat, doubling time 6 h
# [12] = wild type E. coli NCM3722, growth: P-lim chemostat, doubling time 12 h
Sequence,total protein half-life in vivo [1],total protein half-life in vivo [2],total protein half-life in vivo [3],total protein half-life in vivo [4],total protein half-life in vivo [5],total protein half-life in vivo [6],total protein half-life in vivo [7],total protein half-life in vivo [8],total protein half-life in vivo [9],total protein half-life in vivo [10],total protein half-life in vivo [11],total protein half-life in vivo [12]
MNTIFSARIMKRLALTTALCTAFISAAHADDLNIKTMIPGVPQIDAESYILIDYNSGKVLAEQNADVRRDPASLTKMMTSYVIGQAMKAGKFKETDLVTIGNDAWATGNPVFKGSSLMFLKPGMQVPVSQLIRGINLQSGNDACVAMADFAAGSQDAFVGLMNSYVNALGLKNTHFQTVHGLDADGQYSSARDMALIGQALIRDVPNEYSIYKEKEFTFNGIRQLNRNGLLWDNSLNVDGIKTGHTDKAGYNLVASATEGQMRLISAVMGGRTFKGREAESKKLLTWGFRFFETVNPLKVGKEFASEPVWFGDSDRASLGVDKDVYLTIPRGRMKDLKASYVLNSSELHAPLQKNQVVGTINFQLDGKTIEQRPLVVLQEIPEGNFFGKIIDYIKLMFHHWFG [P0AEB2],6.19 ± 0.7 h,6.72 ± 0.74 h,6.22 ± 0.15 h,6.61 ± 0.36 h,6.03 ± 0.14 h,3.24 ± 0.07 h,6.05 ± 0.17 h,12 ± 2.8 h,6.23 ± 0.14 h,14.5 ± 2 h,6.1 ± 0.093 h,13.2 ± 0.43 h
MLYIDKATILKFDLEMLKKHRRAIQFIAVLLFIVGLLCISFPFVSGDILSTVVGALLICSGIALIVGLFSNRSHNFWPVLSGFLVAVAYLLIGYFFIRAPELGIFAIAAFIAGLFCVAGVIRLMSWYRQRSMKGSWLQLVIGVLDIVIAWIFLGATPMVSVTLVSTLVGIELIFSAASLFSFASLFVKQQ [P0AET5],5.35 ± 0.17 h,5.39 ± 0.49 h,5.44 ± 0.84 h,5.08 ± 0.17 h,6.6 ± 0.066 h,2.2 h,–,> 16 h,5.33 ± 0.29 h,10.1 h,5.5 ± 0.65 h,10.1 ± 1.1 h
MNNNLQRDAIAAAIDVLNEERVIAYPTEAVFGVGCDPDSETAVMRLLELKQRPVDKGLILIAANYEQLKPYIDDTMLTDVQRETIFSRWPGPVTFVFPAPATTPRWLTGRFDSLAVRVTDHPLVVALCQAYGKPLVSTSANLSGLPPCRTVDEVRAQFGAAFPVVPGETGGRLNPSEIRDALTGELFRQG,4.72 ± 0.33 h,4.4 ± 0.6 h,4.12 ± 0.43 h,5.29 ± 0.27 h,3.89 ± 0.05 h,–,5.61 ± 0.47 h,9.17 ± 0.24 h,4.08 ± 0.38 h,5.63 ± 1.6 h,5.25 ± 0.24 h,11 ± 1.6 h
MESKVVVPAQGKKITLQNGKLNVPENPIIPYIEGDGIGVDVTPAMLKVVDAAVEKAYKGERKISWMEIYTGEKSTQVYGQDVWLPAETLDLIREYRVAIKGPLTTPVGGGIRSLNVALRQELDLYICLRPVRYYQGTPSPVKHPELTDMVIFRENSEDIYAGIEWKADSADAEKVIKFLREEMGVKKIRFPEHCGIGIKPCSEEGTKRLVRAAIEYAIANDRDSVTLVHKGNIMKFTEGAFKDWGYQLAREEFGGELIDGGPWLKVKNPNTGKEIVIKDVIADAFLQQILLRPAEYDVIACMNLNGDYISDALAAQVGGIGIAPGANIGDECALFEATHGTAPKYAGQDKVNPGSIILSAEMMLRHMGWTEAADLIVKGMEGAINAKTVTYDFERLMDGAKLLKCSEFGDAIIENM,4.7 ± 0.38 h,4.36 ± 0.53 h,4.05 ± 0.061 h,4.61 ± 0.056 h,4.1 ± 0.047 h,3.16 ± 0.068 h,5.584 ± 0.048 h,10.1 ± 0.64 h,4.08 ± 0.24 h,6.47 ± 0.1 h,5.73 ± 0.1 h,12.3 ± 0.41 h
MAATKPAFNPPGKKGDIIFSVLVKLAALIVLLMLGGIIVSLIISSWPSIQKFGLAFLWTKEWDAPNDIYGALVPIYGTLVTSFIALLIAVPVSFGIALFLTELAPGWLKRPLGIAIELLAAIPSIVYGMWGLFIFAPLFAVYFQEPVGNIMSNIPIVGALFSGPAFGIGILAAGVILAIMIIPYIAAVMRDVFEQTPVMMKESAYGIGCTTWEVIWRIVLPFTKNGVIGGIMLGLGRALGETMAVTFIIGNTYQLDSASLYMPGNSITSALANEFAEAESGLHVAALMELGLILFVITFIVLAASKFMIMRLAKNEGAR [P0AGH8],5.52 ± 1 h,–,5.62 ± 0.46 h,5.31 ± 1.4 h,5.08 ± 0.47 h,–,–,15.4 h,3.42 h,12.1 h,5.49 ± 0.25 h,11.4 ± 0.52 h
MAEKQTAKRNRREEILQSLALMLESSDGSQRITTAKLAASVGVSEAALYRHFPSKTRMFDSLIEFIEDSLITRINLILKDEKDTTARLRLIVLLLLGFGERNPGLTRILTGHALMFEQDRLQGRINQLFERIEAQLRQVLREKRMREGEGYTTDETLLASQILAFCEGMLSRFVRSEFKYRPTDDFDARWPLIAAQLQ [P0C093],6.82 ± 0.62 h,–,5.04 ± 0.42 h,5.5 ± 0.72 h,4.65 ± 0.39 h,2.5806 ± 0.0014 h,5.49 ± 0.15 h,9.76 ± 1.4 h,4.89 ± 0.97 h,9.106 ± 0.086 h,4.14 ± 0.13 h,7.01 ± 0.77 h
MYTKIIGTGSYLPEQVRTNADLEKMVDTSDEWIVTRTGIRERHIAAPNETVSTMGFEAATRAIEMAGIEKDQIGLIVVATTSATHAFPSAACQIQSMLGIKGCPAFDVAAACAGFTYALSVADQYVKSGAVKYALVVGSDVLARTCDPTDRGTIIIFGDGAGAAVLAASEEPGIISTHLHADGSYGELLTLPNADRVNPENSIHLTMAGNEVFKVAVTELAHIVDETLAANNLDRSQLDWLVPHQANLRIISATAKKLGMSMDNVVVTLDRHGNTSAASVPCALDEAVRDGRIKPGQLVLLEAFGGGFTWGSALVRF [P0A6R0],5.01 ± 0.12 h,4.93 ± 0.2 h,4.91 ± 0.11 h,5.578 ± 0.021 h,4.564 ± 0.018 h,2.89 ± 0.036 h,5.36 ± 0.51 h,9.94 ± 0.71 h,4.91 ± 0.27 h,9.3 ± 1 h,5.907 ± 0.0094 h,12.9 ± 1.5 h

# Reference: the supplement of paper PMC11246515
